According to publication PMC4938799, “LD Motif Recognition by Talin: Structure of the Talin-DLC1 Complex” (Structure(London, England:1993), 2016):

Test system: paxillin-DDK
Assay: GST pull-down of transfected paxillin-DDK in 293 cells
Type: cell-based, human
Source text: To investigate whether the biological effects of GST-R8 might be partly mediated via paxillin, we first confirmed that endogenous paxillin is expressed in cell lines A549, H358, and 293T (Figure S6A). […] As a positive control, HEK293 cells were co-transfected with a paxillin-DDK construct (OriGene) and GST-R8 (wild-type, R1544E and 2E mutants), followed by a GST pull-down assay.
Figure S6, related to figure 5. Binding of GST-talin R8 to endogenous paxillin is undetectable in A549 and H358 cells.
(A) The expression of endogenous paxillin in cell lines. Cell extracts were assayed by immunoblotting with anti-paxillin antibody. […]
NMR Spectroscopy - Spectra were processed with TopSpin (Bruker) and analysed using CCPN Analysis (Vranken et al., 2005). […] The changes in chemical shift of 15N-talin R8 domain were calculated from 1H,15N-HSQC spectra as Δδ=√(ΔδH2+(ΔδN*0.15)2). […]
Dissociation constants were evaluated from the 1H,15N-HSQC chemical shift changes in the titration experiments conducted using 0.1 mM 15N-talin R8 domain. […]
Concentrations of the DLC1 and RIAM peptides were determined from UV absorbance at 280 nm.
Concentrations of the paxillin peptide that lacks UV-active aromatic residues was determined by NMR from the comparison of the integral intensities of the well-separated signals of the methyl groups of the paxillin and RIAM peptides following the Eretic2 procedure of TopSpin (Bruker). […]

B1: GST-R8: GST-tagged talin R8, amino acids 1,453–1,580 (protein)
chain: NSQAGQQGLVEPTQFARANQAIQMACQSLGEPGCTQAQVLSAATIVAKHTSALCNSCRLASARTANPTAKRQFVQSAKEVANSTANLVKTIKALDGDFTEENRAQCRAATAPLLEAVDNLSAFASNPE
modifications: left off: GST, end not stated, kept
293 cells co-transfected with paxillin-DDK and GST-R8, listed as GST-talin R8 wt
  binding of paxillin-DDK: formed a complex
293 cells co-transfected with paxillin-DDK and GST-R8, listed as wild-type GST-R8
  binding of paxillin-DDK: did bind paxillin-DDK, and did so more efficiently than 2E GST-R8 talin mutant
